# Values of other authors as cited in article PMC9590617.
# Assays:
# NPFFR1 (Homo sapiens) = NPFFR1 (Homo sapiens) (UniProt Q9GZQ6)
# NPFFR2 (Homo sapiens) = NPFFR2 (Homo sapiens) (UniProt Q9Y5X5)
# Sequence of UniProt Q9Y5X5 (Q9Y5X5 whole entry): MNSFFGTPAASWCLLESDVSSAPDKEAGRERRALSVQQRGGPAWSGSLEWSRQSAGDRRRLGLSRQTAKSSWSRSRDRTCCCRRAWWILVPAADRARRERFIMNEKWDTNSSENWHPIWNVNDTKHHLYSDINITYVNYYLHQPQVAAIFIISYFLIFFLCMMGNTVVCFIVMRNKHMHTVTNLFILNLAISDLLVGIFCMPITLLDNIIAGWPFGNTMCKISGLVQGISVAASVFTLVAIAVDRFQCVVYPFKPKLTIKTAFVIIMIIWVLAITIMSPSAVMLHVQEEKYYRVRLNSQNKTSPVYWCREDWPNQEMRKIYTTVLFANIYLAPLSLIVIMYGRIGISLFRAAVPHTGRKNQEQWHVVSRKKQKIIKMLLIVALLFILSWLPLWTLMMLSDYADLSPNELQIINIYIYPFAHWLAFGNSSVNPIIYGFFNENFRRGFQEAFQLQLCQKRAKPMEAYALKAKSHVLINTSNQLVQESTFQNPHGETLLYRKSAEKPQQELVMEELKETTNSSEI
# Sequence of UniProt Q9GZQ6 (Q9GZQ6 whole entry): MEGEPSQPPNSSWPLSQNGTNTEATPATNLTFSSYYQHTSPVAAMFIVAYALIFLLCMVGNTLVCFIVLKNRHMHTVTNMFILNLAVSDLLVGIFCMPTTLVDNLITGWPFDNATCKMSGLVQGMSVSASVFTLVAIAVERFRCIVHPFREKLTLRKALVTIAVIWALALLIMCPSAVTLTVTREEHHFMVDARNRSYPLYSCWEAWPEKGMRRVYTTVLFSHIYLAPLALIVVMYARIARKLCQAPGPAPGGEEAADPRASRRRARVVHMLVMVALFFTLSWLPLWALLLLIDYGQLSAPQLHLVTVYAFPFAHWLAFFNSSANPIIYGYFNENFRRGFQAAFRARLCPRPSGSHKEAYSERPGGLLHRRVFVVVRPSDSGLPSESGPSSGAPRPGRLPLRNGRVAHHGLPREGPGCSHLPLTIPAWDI
substance,measurement,setting,value
Neuropeptide FF (from UniProt O15130),Kd,NPFFR1 (Homo sapiens),1130 pM
same,Kd,NPFFR2 (Homo sapiens),370 pM
